Assay results reported in paper PMC10893636, “Synergistic enhancement of the mouse Pramex1 and Pramel1 in repressing retinoic acid (RA) signaling during gametogenesis” (Cell & Bioscience, 2024).

B1: PRAMEX1 (Prame like, X-linked 1) (natural protein, mouse (endogenous in testis), UniProt F7ADI6 1-462, looked up)
chain: MDERDPSSLLDLAIQSLLSNELVAIHSLGEIPRELFVPLFSAAFTGGYRKILTSMVKIWPFTCLHIGTLSVQEPQRELLKAMVESLQFLPAQDCSSGGPKLRILDVRQGVDCKTTCPDFGARSPTCFHGCTHSVHSILKLESQYSIVDLKPESQSAIQPMELLVDLSLDGTLREREFFALLLNKVQQSSGSLHLCCRDLQIDRFSYAKNALKFLDLTCIQNLTVDQASLSEVTTLLARMIYLDSLSLSKITYRSLHGKVFRVFLNYLGRMNCLKELNLSSFSLTDHLDSLLRALPPNLDFLYLPFCEISYRDLKFLSQSAQATHLKLLNLSNNPMYWDDCGPFQTLLQKLSDTLQHLAINHCHLTDAILSAILPALSKCSHLRVISFVSNPISMPMLLKILHYLTPLMELKYVIYPIPIHCYEQWQFHGRLDRQKLTDVQAQLKAMLQAAKRSDMNWITYSQ
notes: PRAMEX1 (Prame like, X-linked 1), mouse, endogenous in testis; band of about 56 kDa; Endogenous protein of C57BL/6 mouse testis; no recombinant construct; source: endogenous, mouse P7 testis protein extract
B2: Retinoic acid receptor alpha (RARα) (natural protein, mouse (endogenous in testis), UniProt P11416 1-462, looked up)
chain: MASNSSSCPTPGGGHLNGYPVPPYAFFFPPMLGGLSPPGALTSLQHQLPVSGYSTPSPATIETQSSSSEEIVPSPPSPPPLPRIYKPCFVCQDKSSGYHYGVSACEGCKGFFRRSIQKNMVYTCHRDKNCIINKVTRNRCQYCRLQKCFDVGMSKESVRNDRNKKKKEAPKPECSESYTLTPEVGELIEKVRKAHQETFPALCQLGKYTTNNSSEQRVSLDIDLWDKFSELSTKCIIKTVEFAKQLPGFTTLTIADQITLLKAACLDILILRICTRYTPEQDTMTFSDGLTLNRTQMHNAGFGPLTDLVFAFANQLLPLEMDDAETGLLSAICLICGDRQDLEQPDKVDMLQEPLLEALKVYVRKRRPSRPHMFPKMLMKITDLRSISAKGAERVITLKMEIPGSMPPLIQEMLENSEGLDTLSGQSGGGTRDGGGLAPPPGSCSPSLSPSSHRSSPATQSP
notes: Retinoic acid receptor alpha, mouse, endogenous in testis; band of 52 kDa; Endogenous protein of C57BL/6 mouse testis; source: endogenous, mouse P7 testis protein extract

What was measured:
[1] = target: B2; experiment: co-IP; anti-PRAMEX1 or anti-RARα antibody immobilised on protein A/G magnetic beads (Pierce Crosslink Magnetic IP/co-IP Kit); P7 testis proteins of WT, Pramex1 sKO and Pramel1 sKO mice, overnight at 4 °C; Western blot, band intensity relative to input (set as 1), n = 3; conditions: partners not purified
[2] = target: B1; experiment: as above; conditions: partners not purified

band intensity in the RARα co-IP relative to input, Pramel1 sKO testis [1] [fold] | band intensity in the RARα co-IP relative to input, WT testis [1] [fold] | band intensity in the PRAMEX1 precipitation relative to input, Pramel1 sKO testis [2] [fold] | band intensity in the PRAMEX1 precipitation relative to input, WT testis [2] [fold] | Binder
3.32 | 1.3 |  |  | B1
 |  | 2.48 | 1.5 | B2
